# System: KsCcr
# Test: HPLC analysis of reaction products: 2-HMB-CoA formed over total products from crotonyl-CoA and formaldehyde
# Format: biochemical, Kitasatospora setae
# Settings: for Ratio of 2-HMB-CoA formed over total products: triplicates, mean ± standard deviation, values given as %
# Excerpt: KsCcr wild-type (WT) natively promotes the NADPH-dependent reductive carboxylation of crotonyl-CoA into ethylmalonyl-CoA. […] Under these conditions, neither ethylmalonyl-CoA (carboxylation product) nor butyryl-CoA (reduction side product) were detected with LC-MS (see Table 2 further below). […] The compound was isolated and its structure was further verified using 2-dimensional NMR and high-resolution MS experiments. […] The newly introduced carbon was also observed in the ^13C-NMR experiment, confirming formation of aldol product 2-HMB-CoA by KsCcr.
# The reaction was diluted 10 times into 5% methanol/Buffer 8.1 and analyzed by HPLC over an Agilent Eclipse Plus C18, 3.5 μm 100 Å, 100×2.1 mm, […] column using 5% to 30% acetonitrile gradient over 7.5 min with 25 mM ammonium formate pH=8.1 as the aqueous phase.
Molecule,Ratio of 2-HMB-CoA formed over total products (5 mM formaldehyde),2-HMB-CoA produced (reductive aldol product) (75 mM formaldehyde) [%],Ratio of 2-HMB-CoA formed over total products (75 mM formaldehyde)
"KsCcr variant His365Asn: KsCcr active site variant His365Asn, SEQ ID NO: 19 (protein, KsCcr variant His365Asn) MQEILDAILSGDAASADYAALALPESYRAVTLHKGEERMFDGLASRDKDPRKSLHLDDVPLPELGPGEALVAVMASSVNYNTVWSSIFEPVSTFGFLERYGRLSPLTARHDLPYHVLGSDLAGVVLRTGAGVNAWKPGDEVVAHCLSVELESPDGHNDTMMDPEQRIWGFETNFGGLAQLALVKTNQLLPKPKHLTWEEAASPGLVNSTAYRQLVSRNGAGLKQGDNVLIWGASGGLGSYATQYALAGGATPICVVSSPRKADICRAMGAEAIIDRSAEGYRFWKDEHHQDPREWKRLGGKIREFTGGEDVDIVFEHPGRETFGASVYVTRKGGTIVTCASTSGYMHQYDNRYLWMSLKRIVGSNFANYREAFEANRLVAKGKIHPTLSKVYALEETGQAALDVHHNKHQGKVGVLCLAPREGLGVTDPELRSKHLTKINAFRNV",42 ± 1,89,89 ± 0
"KsCcr variant Glu171Ala: KsCcr variant Glu171Ala, SEQ ID NO: 24 (protein, KsCcr variant Glu171Ala) MQEILDAILSGDAASADYAALALPESYRAVTLHKGEERMFDGLASRDKDPRKSLHLDDVPLPELGPGEALVAVMASSVNYNTVWSSIFEPVSTFGFLERYGRLSPLTARHDLPYHVLGSDLAGVVLRTGAGVNAWKPGDEVVAHCLSVELESPDGHNDTMMDPEQRIWGFATNFGGLAQLALVKTNQLLPKPKHLTWEEAASPGLVNSTAYRQLVSRNGAGLKQGDNVLIWGASGGLGSYATQYALAGGATPICVVSSPRKADICRAMGAEAIIDRSAEGYRFWKDEHHQDPREWKRLGGKIREFTGGEDVDIVFEHPGRETFGASVYVTRKGGTIVTCASTSGYMHQYDNRYLWMSLKRIVGSHFANYREAFEANRLVAKGKIHPTLSKVYALEETGQAALDVHHNKHQGKVGVLCLAPREGLGVTDPELRSKHLTKINAFRNV",43 ± 0,,89 ± 0
"KsCcr variant Asn81Asp: KsCcr active site variant Asn81Asp, no SEQ ID given (protein) MQEILDAILSGDAASADYAALALPESYRAVTLHKGEERMFDGLASRDKDPRKSLHLDDVPLPELGPGEALVAVMASSVNYDTVWSSIFEPVSTFGFLERYGRLSPLTARHDLPYHVLGSDLAGVVLRTGAGVNAWKPGDEVVAHCLSVELESPDGHNDTMMDPEQRIWGFETNFGGLAQLALVKTNQLLPKPKHLTWEEAASPGLVNSTAYRQLVSRNGAGLKQGDNVLIWGASGGLGSYATQYALAGGATPICVVSSPRKADICRAMGAEAIIDRSAEGYRFWKDEHHQDPREWKRLGGKIREFTGGEDVDIVFEHPGRETFGASVYVTRKGGTIVTCASTSGYMHQYDNRYLWMSLKRIVGSHFANYREAFEANRLVAKGKIHPTLSKVYALEETGQAALDVHHNKHQGKVGVLCLAPREGLGVTDPELRSKHLTKINAFRNV",1 ± 0,,11 ± 0
"KsCcr variant Ser119Ala: KsCcr variant Ser119Ala, SEQ ID NO: 22 (protein, KsCcr variant Ser119Ala) MQEILDAILSGDAASADYAALALPESYRAVTLHKGEERMFDGLASRDKDPRKSLHLDDVPLPELGPGEALVAVMASSVNYNTVWSSIFEPVSTFGFLERYGRLSPLTARHDLPYHVLGADLAGVVLRTGAGVNAWKPGDEVVAHCLSVELESPDGHNDTMMDPEQRIWGFETNFGGLAQLALVKTNQLLPKPKHLTWEEAASPGLVNSTAYRQLVSRNGAGLKQGDNVLIWGASGGLGSYATQYALAGGATPICVVSSPRKADICRAMGAEAIIDRSAEGYRFWKDEHHQDPREWKRLGGKIREFTGGEDVDIVFEHPGRETFGASVYVTRKGGTIVTCASTSGYMHQYDNRYLWMSLKRIVGSHFANYREAFEANRLVAKGKIHPTLSKVYALEETGQAALDVHHNKHQGKVGVLCLAPREGLGVTDPELRSKHLTKINAFRNV",37 ± 3,83,83 ± 0
"KsCcr variant Thr82Asp: KsCcr variant Thr82Asp, SEQ ID NO: 21 (protein, KsCcr variant Thr82Asp) MQEILDAILSGDAASADYAALALPESYRAVTLHKGEERMFDGLASRDKDPRKSLHLDDVPLPELGPGEALVAVMASSVNYNDVWSSIFEPVSTFGFLERYGRLSPLTARHDLPYHVLGSDLAGVVLRTGAGVNAWKPGDEVVAHCLSVELESPDGHNDTMMDPEQRIWGFETNFGGLAQLALVKTNQLLPKPKHLTWEEAASPGLVNSTAYRQLVSRNGAGLKQGDNVLIWGASGGLGSYATQYALAGGATPICVVSSPRKADICRAMGAEAIIDRSAEGYRFWKDEHHQDPREWKRLGGKIREFTGGEDVDIVFEHPGRETFGASVYVTRKGGTIVTCASTSGYMHQYDNRYLWMSLKRIVGSHFANYREAFEANRLVAKGKIHPTLSKVYALEETGQAALDVHHNKHQGKVGVLCLAPREGLGVTDPELRSKHLTKINAFRNV",14 ± 1,57,57 ± 1
